Measurements reported in patent US20150361464A1, “METHODS, REAGENTS AND CELLS FOR BIOSYNTHESIZING COMPOUNDS” (INVISTA North America S.á r.l., priority 2014, published 2015).

Assays:
[1] = carboxylate reductase enzyme activity assay (5-hydroxypentanoate to 5-hydroxypentanal), NADPH consumption at 340 nm; type: biochemical; details: purified enzyme enhanced by the gene product of sfp; 1 mM ATP, 1 mM NADPH, pH 7.5, room temperature, 20 minutes; against the empty vector control; FIG. 14
Experimental: A nucleotide sequence encoding a His-tag was added to the genes from Mycobacterium marinum, Mycobacterium smegmatis, Segniliparus rugosus, Mycobacterium massiliense, and Segniliparus rotundus that encode the carboxylate reductases of SEQ ID NOs: 2-4, 6 and 7, respectively (GenBank Accession Nos. ACC40567.1, ABK71854.1, EFV11917.1, EIV11143.1, and ADG98140.1, respectively) (see FIG. 10) such that N-terminal HIS tagged carboxylate reductases could be produced. Each of the modified genes was cloned into a pET Duet expression vector alongside a sfp gene encoding a His-tagged phosphopantetheine transferase from Bacillus subtilis, both under control of the T7 promoter. Each expression vector was transformed into a BL21[DE3] E. coli host along with the expression vectors from Example 3. Each resulting recombinant E. coli strain was cultivated at 37° C. in a 250 mL shake flask culture containing 50 mL LB media and antibiotic selection pressure, with shaking at 230 rpm. Each culture was induced overnight at 37° C. using an auto-induction media. […]
Enzyme activity (i.e., 5-hydroxypentanoate to 5-hydroxypentanal) assays were performed in triplicate in a buffer composed of a final concentration of 50 mM HEPES buffer (pH=7.5), 2 mM 5-hydroxypentanal, 10 mM MgCl2, 1 mM ATP, and 1 mM NADPH. […] The consumption of NADPH was monitored by absorbance at 340 nm. […]

[2] = ω-transaminase enzyme activity assay (cadaverine to 5-aminopentanal), cell free extract; type: biochemical
Experimental: A nucleotide sequence encoding an N-terminal His-tag was added to the Chromobacterium violaceum, Pseudomonas aeruginosa, Pseudomonas syringae, and Escherichia coli genes encoding the ω-transaminases of SEQ ID NOs: 8 to 10 and 12, respectively (see, FIG. 10) such that N-terminal HIS tagged ω-transaminases could be produced. The modified genes were cloned into a pET21a expression vector under the T7 promoter. Each expression vector was transformed into a BL21[DE3] E. coli host. Each resulting recombinant E. coli strain were cultivated at 37° C. in a 250 mL shake flask culture containing 50 mL LB media and antibiotic selection pressure, with shaking at 230 rpm. Each culture was induced overnight at 16° C. using 1 mM IPTG.
The pellet from each induced shake flask culture was harvested via centrifugation. Each pellet was resuspended and lysed via sonication. The cell debris was separated from the supernatant via centrifugation and the cell free extract was used immediately in enzyme activity assays.
Enzyme activity assays in the reverse direction (i.e., cadaverine to 5-aminopentanal) were performed in a buffer composed of a final concentration of 50 mM HEPES buffer (pH=7.5), 10 mM cadaverine, 10 mM pyruvate, and 100 μM pyridoxyl 5′ phosphate. […] The formation of L-alanine was quantified via RP-HPLC.

Molecule	acceptance of 5-hydroxypentanoate as substrate (consumption of NADPH, absorbance at 340 nm) [1]	acceptance of cadaverine as substrate (formation of L-alanine from pyruvate, RP-HPLC) ([2]; 10 mM cadaverine, 10 mM pyruvate, pH 7.5, 25° C., 4 hours, against the empty vector control, FIG. 11)	acceptance of 5-aminopentanal as substrate forming cadaverine, concluded from reversibility of the ω-transaminase activity ([2]; conclusion given reversibility (Example 1))
SEQ ID NO: 6: Mycobacterium massiliense carboxylate reductase, N-terminal HIS tagged (protein, N-terminal His tag; Mycobacterium massiliense, Mycobacterium massiliense carboxylate reductase, N-terminal HIS tagged) MTNETNPQQEQLSRRIESLRESDPQFRAAQPDPAVAEQVLRPGLHLSEAIAALMTGYAERPALGERARELVIDQDGRTTLRLLPRFDTTTYGELWSRTTSVAAAWHHDATHPVKAGDLVATLGFTSIDYTVLDLAIMILGGVAVPLQTSAPASQWTTILAEAEPNTLAVSIELIGAAMESVRATPSIKQVVVFDYTPEVDDQREAFEAASTQLAGTGIALETLDAVIARGAALPAAPLYAPSAGDDPLALLIYTSGSTGAPKGAMHSENIVRRWWIREDVMAGTENLPMIGLNFMPMSHIMGRGTLTSTLSTGGTGYFAASSDMSTLFEDMELIRPTALALVPRVCDMVFQRFQTEVDRRLASGDTASAEAVAAEVKADIRDNLFGGRVSAVMVGSAPLSEELGEFIESCFELNLTDGYGSTEAGMVFRDGIVQRPPVIDYKLVDVPELGYFSTDKPHPRGELLLKTDGMFLGYYKRPEVTASVFDADGFYMTGDIVAELAHDNIEIIDRRNNVLKLSQGEFVAVATLEAEYANSPVVHQIYVYGSSERSYLLAVVVPTPEAVAAAKGDAAALKTTIADSLQDIAKEIQLQSYEVPRDFIIEPQPFTQGNGLLTGIAKLARPNLKAHYGPRLEQMYAEIAEQQAAELRALHGVDPDKPALETVLKAAQALLGVSSAELAADAHFTDLGGDSLSALSFSDLLRDIFAVEVPVGVIVSAANDLGGVAKFVDEQRHSGGTRPTAETVHGAGHTEIRAADLTLDKFIDEATLHAAPSLPKAAGIPHTVLLTGSNGYLGHYLALEWLERLDKTDGKLIVIVRGKNAEAAYGRLEEAFDTGDTELLAHFRSLADKHLEVLAGDIGDPNLGLDADTWQRLADTVDVIVHPAALVNHVLPYNQLFGPNVVGTAEIIKLAITTKIKPVTYLSTVAVAAYVDPTTFDEESDIRLISAVRPIDDGYANGYGNAKWAGEVLLREAHDLCGLPVAVFRSDMILAHSRYTGQLNVPDQFTRLILSLIATGIAPGSFYQAQTTGERPLAHYDGLPGDFTAEAITTLGTQVPEGSEGFVTYDCVNPHADGISLDNFVDWLIEAGYPIARIDNYTEWFTRFDTAIRGLSEKQKQHSLLPLLHAFEQPSAAENHGVVPAKRFQHAVQAAGIGPVGQDGTTDIPHLSRRLIVKYAKDLEQLGLL	accepted 5-hydroxypentanoate as substrate	–	–
SEQ ID NO: 7: Segniliparus rotundus carboxylate reductase, N-terminal HIS tagged (protein, listed as Segniliparus rotundus, N-terminal His tag, Segniliparus rotundus carboxylate reductase, N-terminal HIS tagged) MTQSHTQGPQASAAHSRLARRAAELLATDPQAAATLPDPEVVRQATRPGLRLAERVDAILSGYADRPALGQRSFQTVKDPITGRSSVELLPTFDTITYRELRERATAIASDLAHHPQAPAKPGDFLASIGFISVDYVAIDIAGVFAGLTAVPLQTGATLATLTAITAETAPTLFAASIEHLPTAVDAVLATPSVRRLLVFDYRAGSDEDREAVEAAKRKIADAGSSVLVDVLDEVIARGKSAPKAPLPPATDAGDDSLSLLIYTSGSTGTPKGAMYPERNVAHFWGGVWAAAFDEDAAPPVPAINITFLPLSHVASRLSLMPTLARGGLMHFVAKSDLSTLFEDLKLARPTNLFLVPRVVEMLYQHYQSELDRRGVQDGTREAEAVKDDLRTGLLGGRILTAGFGSAPLSAELAGFIESLLQIHLVDGYGSTEAGPVWRDGYLVKPPVTDYKLIDVPELGYFSTDSPHPRGELAIKTQTILPGYYKRPETTAEVFDEDGFYLTGDVVAQIGPEQFAYVDRRKNVLKLSQGEFVTLAKLEAAYSSSPLVRQLFVYGSSERSYLLAVIVPTPDALKKFGVGEAAKAALGESLQKIARDEGLQSYEVPRDFIIETDPFTVENGLLSDARKSLRPKLKEHYGERLEAMYKELADGQANELRDIRRGVQQRPTLETVRRAAAAMLGASAAEIKPDAHFTDLGGDSLSALTFSNFLHDLFEVDVPVGVIVSAANTLGSVAEHIDAQLAGGRARPTFATVHGKGSTTIKASDLTLDKFIDEQTLEAAKHLPKPADPPRTVLLTGANGWLGRFLALEWLERLAPAGGKLITIVRGKDAAQAKARLDAAYESGDPKLAGHYQDLAATTLEVLAGDFSEPRLGLDEATWNRLADEVDFISHPGALVNHVLPYNQLFGPNVAGVAEIIKLAITTRIKPVTYLSTVAVAAGVEPSALDEDGDIRTVSAERSVDEGYANGYGNSKWGGEVLLREAHDRTGLPVRVFRSDMILAHQKYTGQVNATDQFTRLVQSLLATGLAPKSFYELDAQGNRQRAHYDGIPVDFTAESITTLGGDGLEGYRSYNVFNPHRDGVGLDEFVDWLIEAGHPITRIDDYDQWLSRFETSLRGLPESKRQASVLPLLHAFARPGPAVDGSPFRNTVFRTDVQKAKIGAEHDIPHLGKALVLKYADDIKQLGLL	accepted 5-hydroxypentanoate as substrate	–	–
SEQ ID NO: 12: Escherichia coli ω-transaminase, N-terminal HIS tagged, cell free extract (protein, listed as Escherichia coli, N-terminal His tag, Escherichia coli ω-transaminase, N-terminal HIS tagged, cell free extract) MNRLPSSASALACSAHALNLIEKRTLDHEEMKALNREVIEYFKEHVNPGFLEYRKSVTAGGDYGAVEWQAGSLNTLVDTQGQEFIDCLGGFGIFNVGHRNPVVVSAVQNQLAKQPLHSQELLDPLRAMLAKTLAALTPGKLKYSFFCNSGTESVEAALKLAKAYQSPRGKFTFIATSGAFHGKSLGALSATAKSTFRKPFMPLLPGFRHVPFGNIEAMRTALNECKKTGDDVAAVILEPIQGEGGVILPPPGYLTAVRKLCDEFGALMILDEVQTGMGRTGKMFACEHENVQPDILCLAKALGGGVMPIGATIATEEVFSVLFDNPFLHTTTFGGNPLACAAALATINVLLEQNLPAQAEQKGDMLLDGFRQLAREYPDLVQEARGKGMLMAIEFVDNEIGYNFASEMFRQRVLVAGTLNNAKTIRIEPPLTLTIEQCELVIKAARKALAAMRVSVEEA	–	accepted cadaverine as substrate	accept 5-aminopentanal as substrate and form cadaverine
